According to US5602021:

Tests used:
[1] = biological target: pIII coat protein of bacteriophage CA2000 (OMP1) (filamentous bacteriophage (helper phage R408 derivative))
[2] = biological target: pIII coat protein of bacteriophage CA2000 (OMP2) (filamentous bacteriophage (helper phage R408 derivative))
[3] = biological target: pIII coat protein of bacteriophage CA2000 (filamentous bacteriophage (helper phage R408 derivative))
[4] = biological target: pIII coat protein of bacteriophage CA1000 (filamentous bacteriophage (helper phage R408 derivative))
[5] = biological target: pIII coat protein of bacteriophage CA1051 (filamentous bacteriophage (helper phage R408 derivative))
[6] = biological target: pIII coat protein of bacteriophage CA2000 (filamentous bacteriophage (helper phage R408 derivative)); remark: listed apart in the source
[7] = biological target: pIII coat protein of bacteriophage TARGETBACK (filamentous bacteriophage (helper phage R408 derivative))

Row | Substance | infective phage particles (ampicillin resistant transducing units) from OmpT mediated maturation of pIII [1] | infective phage particles (ampicillin resistant transducing units) from OmpT mediated maturation of pIII [2] | infective phage particles (ampicillin resistant transducing units) from OmpT mediated maturation of pIII [3] | infective phage particles (OmR transducing units) [4] | infective phage particles (OmR transducing units) [5] | infective phage particles (OmR transducing units) [6] | infective phage particles (OmR transducing units) [7]
1 | OmpT protease (from UniProt P09169) (enzyme) | 2500 ApR T.U./ml | 18000 ApR T.U./ml | < 50 ApR T.U./ml |  |  |  | 
2 | host encoded leader peptidase (from UniProt P00803) (enzyme) |  |  |  | 1e+08 OmR T.U./ml | 30000 OmR T.U./ml | < 50 OmR T.U./ml | 1000 OmR T.U./ml
